Results from PMC7053772, “Characterization and assembly of the Pseudomonas aeruginosa aspartate transcarbamoylase-pseudo dihydroorotase complex” (PLoS ONE, 2020).

B1: Pseudomonas aeruginosa pseudo dihydroorotase (natural protein, Pseudomonas aeruginosa (strain PAO1), UniProt Q51551 1-423, looked up)
chain: MTISIRGARVIDPASDLDQVGDLHIEAGKIVAIGAAPAGFSAQKTLDGAGLVAAPGLVDLSVALREPGYGRKGNVESETRAAAAGGTTSLCCPPYTRPVLDTPAVAELILDRAREAGNAKVYPIGALTRGFGGEQLSELVALRDTGCVAFTNGLHGFASNRILRRALEYAATFDLTVIFTSQDTDLAEGGLAHEGPTASFLGLAGIPETAETVALARNLLLVEQSGVRAHFSQLTSARGIELVAQAQARGLPVTCDVALYQLILTDEALVGFSSLYHVQPPLRTRADREALREAVKNGVVQAIASHHQPHEADAKNAPFAATEPGISGAELLLPLAMTLVQDGLLDLPTLLARLSHGPAQALRLPAGRLAVGQAADLVLFDPQGSTLAGESWYSKGQNSPFVGHCLPGRVRYTLVDGHLTHEG
notes: Dimer by size exclusion chromatography; also called pDHO; pseudo-DHO; source: also co-transformed and co-purified with mutant ATCases
B2: Pseudomonas aeruginosa aspartate transcarbamoylase catalytic chain (enzyme, Pseudomonas aeruginosa (strain PAO1), UniProt Q59653 1-334, looked up)
chain: MPTDAKRPLQLNDQGQLRHFISLDGLPRELLTEILDTADSFLEVGARAVKKVPLLRGKTVCNVFFENSTRTRTTFELAAQRLSADVISLNVSTSSTSKGETLTDTLRNLEAMAADMFVVRHSDSGAAHFIAEHVSPNVAVINGGDGRHAHPTQGMLDMLTIRRHKGNFEQLSVAIVGDILHSRVARSNMLALKTLGCPDIRVIAPRTLLPIGLEEQYGVRVFTNADEGLKDVDVVIMLRLQRERMQGGLLPSEGEFFKLYGLTEKRLKLAKPDAIVMHPGPINRGVEIESAVADGAQSVILNQVTYGIAIRMAVLSMAMSGQNTQRQLEQEDAE
notes: Aspartate transcarbamoylase (ATCase) catalytic chain of Pseudomonas aeruginosa strain PAO1, gene pyrB; about 36-37 kDa; The pyrB gene was amplified by PCR and put into pETite; Removal of the His tag is not mentioned; also called ATCase; ATCase subunit

Legend:
[1] = target: T1, P. aeruginosa ATCase-pDHO complex (Pseudomonas aeruginosa, UniProt Q59653); experiment: colorimetric ATCase assay, carbamoyl phosphate saturation curves; type: biochemical; details: 8 mM aspartate, 37°C; PALA 0-500 nM; bisubstrate inhibitor
T1 construct: gene pyrB; both full-length subunits with N-terminal 6xHis tag (pETite), E. coli BL21(DE3), Ni-purified, mixed 1:1; 37 kDa + 45 kDa, 457 kDa dodecamer; with Dihydroorotase-like protein
T1 sequence (Q59653 1-334): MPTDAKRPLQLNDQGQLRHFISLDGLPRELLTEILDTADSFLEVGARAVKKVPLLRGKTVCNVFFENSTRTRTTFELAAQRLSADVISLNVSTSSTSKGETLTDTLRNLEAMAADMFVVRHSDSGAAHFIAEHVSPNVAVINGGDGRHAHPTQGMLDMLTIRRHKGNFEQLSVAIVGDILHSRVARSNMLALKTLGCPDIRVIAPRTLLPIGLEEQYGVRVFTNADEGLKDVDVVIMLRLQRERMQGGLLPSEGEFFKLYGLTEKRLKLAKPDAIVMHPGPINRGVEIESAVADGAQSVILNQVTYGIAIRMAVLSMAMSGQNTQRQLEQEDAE
T1 sequence (Q51551 1-423 partner): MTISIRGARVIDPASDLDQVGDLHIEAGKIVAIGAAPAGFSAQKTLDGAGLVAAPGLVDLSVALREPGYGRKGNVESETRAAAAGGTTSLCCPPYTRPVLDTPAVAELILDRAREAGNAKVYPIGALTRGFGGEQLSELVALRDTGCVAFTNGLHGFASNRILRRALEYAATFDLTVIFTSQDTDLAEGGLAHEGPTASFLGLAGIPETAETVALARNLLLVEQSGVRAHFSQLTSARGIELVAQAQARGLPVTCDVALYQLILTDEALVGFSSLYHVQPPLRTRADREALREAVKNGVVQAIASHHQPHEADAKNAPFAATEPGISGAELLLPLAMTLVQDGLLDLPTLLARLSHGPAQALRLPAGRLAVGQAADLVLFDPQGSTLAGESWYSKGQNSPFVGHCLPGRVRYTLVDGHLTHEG

[2] = target: B2; experiment: cell-based or functional assay
[3] = target: the molecule itself; experiment: SEC; each Ni2+ column purified protein applied alone; Superdex S-200, 50 mM Tris-HCl pH 7.5, 200 mM NaCl; 2-mL sample of 5-10 mg/ml; calibrated column
[4] = target: B1; experiment: SEC; complex reconstituted by mixing equimolar amounts of ATCase and pDHO; Superdex S-200, 50 mM Tris-HCl pH 7.5, 200 mM NaCl; fractions on SDS-PAGE; details: both partners purified
purified protein [5] = substrate: NC(=O)OP(=O)(O)O; experiment: purified protein; type: biochemical, Pseudomonas aeruginosa; details: 8 mM aspartate, 50 mM Tris/acetate pH 8.3, 37°C, Hill fit, text b47 prints 2.5 mM, Table 3 (0 ATP series) 0.88 ± 0.03 mM
purified protein [6] = substrate: N[C@@H](CC(=O)O)C(=O)O; experiment: purified protein; type: biochemical, Pseudomonas aeruginosa; details: 10 mM carbamoyl phosphate, 50 mM Tris/acetate pH 8.3, 37°C, Hill fit

## O=C(O)C[C@H](NC(=O)CP(=O)(O)O)C(=O)O [N-phosphonacetyl-L-aspartate]
[1]
  colorimetric ATCase assay, carbamoyl phosphate saturation curves: N-phosphonacetyl-L-aspartate is also a potent inhibitor of the of the P. aeruginosa enzyme

## B1
[2]
  ATCase activity of a fixed amount of ATCase (4 ug) titrated with pDHO (0-24.3 ug); molar ratio of ATCase to pDHO at which the activity levels off: 0.97 mol pDHO per mol ATCase
[3]
  stoichiometry N: 2

## B2
[4]
  binding result: binds
Purified protein [5]
  K0.5: 2.8 ± 0.18 mM
  Vmax: 142 µmol/min/mg
  kcat: 87.6 s⁻¹
  kcat/Km: 31000 M⁻¹ s⁻¹
Purified protein [6]
  K0.5: 3.6 ± 0.41 mM
  Vmax: 183 µmol/min/mg
  kcat: 113 s⁻¹
  kcat/Km: 31000 M⁻¹ s⁻¹
